A short description of data set [1]: Specific activities of recombinant enzymes towards different substrates (Kredich and Tomkins). The format is biochemical. From the text:
Specific activities (micromol/min/mg protein) towards different substrates
(§1) Assayed according to Kredich and Tomkins (Journal of Biological Chemistry 241, 4955-4965, 1966)

Data set [2] in a line: Kinetic properties of recombinant enzymes. It counts as biochemical. The following applies: ± SD, n in brackets.
Excerpt: as §1

Where [3] appears, read: substrate O-succinyl-L-homoserine.

B1: PA3107: Recombinant N-terminal His-tagged O-acetyl-L-homoserine thiol lyase from Pseudomonas aeruginosa, encoded by gene PA3107 (MetZ, Genbank AAA83435) (protein, UniProt P55218 1-403, looked up)
O-succinylhomoserine …: MTQDWDAGRLDSDLEGAAFDTLAVRAGQRRTPEGEHGEALFTTSSYVFRTAADAAARFAGEVPGNVYSRYTNPTVRTFEERIAALEGAEQAVATASGMSAILALVMSLCSSGDHVLVSRSVFGSTISLFDKYFKRFGIQVDYPPLSDLAAWEAACKPNTKLFFVESPSNPLAELVDIAALAEIAHAKGALLAVDNCFCTPALQQPLKLGADVVIHSATKYIDGQGRGMGGVVAGRGEQMKEVVGFLRTAGPTLSPFNAWLFLKGLETLRIRMQAHSASALALAEWLERQPGIERVYYAGLPSHPQHELARRQQSGFGAVVSFDVKGGRDAAWRFIDATRMVSITTNLGDTKTTIAHPATTSHGRLSPEDRARAGIGDSLIRVAVGLEDLDDLKADMARGLAAL
modifications: N-terminal His tag
In the case of B1, the Specific activity in data set [1] (substrate O-acetyl-L-homoserine) is reported as below 0.1 micromol/min/mg protein; in data set [1] (substrate O-acetyl-serine), below 0.1 micromol/min/mg protein; in data set [1] (setting [3]) it was 139 micromol/min/mg protein. Moreover, the Km came out at 800 ± 200 µM in data set [2] (Km for Na2S, determined with 15 mM O-succinyl-L-homoserine) and 4400 ± 1000 µM in data set [2] (Km for O-succinyl-L-homoserine). The Vmax in data set [2] (substrate Na2S) is 174.2 ± 39.8 (3) μmol/min/mg protein; in data set [2] (setting [3]), 180.4 ± 21.0 (3) μmol/min/mg protein.

(Values after patent US20070065896A1, “Methods and kits for quantifying metabolites or analytes” (priority 2003, published 2007).)
